# The supplement of paper PMC9732359
# ± gives the uncertainty stated by the source.
# Assay: protein stability index of a GFP-peptide fusion (yeast GPS) (PSI 1-4); higher = more stable; sorted into four equal gates, so the index is relative within each strain
# How it was run: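 For each peptide, the protein stability index sums the read frequency in every gate after multiplying it by the gate number. Read frequencies came from plasmids that were PCR-amplified from each gate and Illumina-sequenced, with reads assigned to strains by barcodes. The gates were four equal bins of GFP/Cherry fluorescence ratio applied to mid-log yeast in leucine-free medium carrying a pooled library of tiled 17-residue yeast protein peptides fused downstream of GFP on a Cherry-expressing plasmid.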
sequence,measurement,setting,value
VRTNRFDIIEESFKGLQ [ECM29],protein stability index,doa10∆,2.6 ± 0.099
same,protein stability index,pdr5∆,2.47 ± 0.13
same,protein stability index,san1∆,2.18 ± 0.12
same,protein stability index,ubr1∆,2.26 ± 0.1
NRLEIKYHNDLIEKEIQ [SMC1],protein stability index,doa10∆,2.35 ± 0.18
same,protein stability index,pdr5∆,2.51 ± 0.083
same,protein stability index,ubr1∆,2.42 ± 0.13
NTSAATVHTATSSSIIL [SSN2],protein stability index,doa10∆,2.41 ± 0.053
same,protein stability index,pdr5∆,2.761 ± 0.026
same,protein stability index,san1∆,2.61 ± 0.045
same,protein stability index,ubr1∆,2.65 ± 0.038
EGARMVRELFEMARTKK [RPT1],protein stability index,doa10∆,1.78 ± 0.12
same,protein stability index,pdr5∆,1.7 ± 0.15
WVKKFKWAGIKTRKFVF [CYT1],protein stability index,doa10∆,1.14 ± 0.12
same,protein stability index,pdr5∆,1.51 ± 0.1
same,protein stability index,ubr1∆,1.27 ± 0.074
NAIRIGELFLNESWKSS [SRP72],protein stability index,doa10∆,3.39 ± 0.14
same,protein stability index,pdr5∆,3.21 ± 0.083
same,protein stability index,san1∆,2.62 ± 0.14
same,protein stability index,ubr1∆,3.12 ± 0.062
SHERFFLSQGLHVVITL [CSN12],protein stability index,doa10∆,2.89 ± 0.099
same,protein stability index,pdr5∆,2.94 ± 0.094
same,protein stability index,san1∆,2.74 ± 0.18
same,protein stability index,ubr1∆,2.87 ± 0.12
EPQGAVTHMDQIFVRGS [SMD3],protein stability index,doa10∆,2.64 ± 0.11
same,protein stability index,pdr5∆,2.77 ± 0.07
same,protein stability index,san1∆,2.62 ± 0.099
same,protein stability index,ubr1∆,2.56 ± 0.11
KGDLRRGFIKSEGSGSS [RPC53],protein stability index,doa10∆,3.43 ± 0.14
same,protein stability index,pdr5∆,3.37 ± 0.1
same,protein stability index,san1∆,3.31 ± 0.07
same,protein stability index,ubr1∆,3.48 ± 0.15
VNDRYQIPTPNNTVDPG [CSI1],protein stability index,doa10∆,1.44 ± 0.059
same,protein stability index,pdr5∆,1.71 ± 0.075
same,protein stability index,san1∆,1.71 ± 0.13
same,protein stability index,ubr1∆,1.55 ± 0.048
ADVLSILAMTYSENGKH [RPN1],protein stability index,doa10∆,1.64 ± 0.066
same,protein stability index,pdr5∆,1.9 ± 0.1
same,protein stability index,san1∆,1.45 ± 0.11
same,protein stability index,ubr1∆,1.36 ± 0.052
WPTTHKYPLGHFVRDLG [DIS3],protein stability index,doa10∆,2.46 ± 0.063
same,protein stability index,pdr5∆,2.58 ± 0.086
same,protein stability index,san1∆,3.07 ± 0.08
same,protein stability index,ubr1∆,2.49 ± 0.11
GKIEKIAQSKKKNNKIK [SRP21],protein stability index,doa10∆,3.11 ± 0.094
same,protein stability index,pdr5∆,3.02 ± 0.078
same,protein stability index,san1∆,3.01 ± 0.066
same,protein stability index,ubr1∆,3.14 ± 0.057
ANTGGGLFGANSNSNSG [YGL172W/NUP49],protein stability index,doa10∆,2.11 ± 0.11
same,protein stability index,pdr5∆,2.74 ± 0.077
same,protein stability index,san1∆,1.76 ± 0.17
same,protein stability index,ubr1∆,2.22 ± 0.14
NRKIYQFTLYDRELNEV [SMC3],protein stability index,pdr5∆,2.62 ± 0.11
same,protein stability index,san1∆,2.76 ± 0.13
same,protein stability index,ubr1∆,2.98 ± 0.095
FKERQMMVSYPKIDEDD [AAR2],protein stability index,doa10∆,3.28 ± 0.061
same,protein stability index,pdr5∆,3.2 ± 0.055
same,protein stability index,san1∆,3.19 ± 0.045
same,protein stability index,ubr1∆,3.35 ± 0.043
PLDDAGTIGWDLGITEK [MCD1],protein stability index,ubr1∆,3.05 ± 0.16
TLSTHSTTTSVNGSTTA [SIN4],protein stability index,doa10∆,2.79 ± 0.043
same,protein stability index,pdr5∆,3.04 ± 0.038
same,protein stability index,san1∆,3.114 ± 0.03
same,protein stability index,ubr1∆,2.93 ± 0.031
LPVMESLDSCTAAFTAM [YJR042W/NUP85],protein stability index,doa10∆,2.65 ± 0.085
same,protein stability index,pdr5∆,2.37 ± 0.066
same,protein stability index,san1∆,2.54 ± 0.071
same,protein stability index,ubr1∆,2.37 ± 0.071
IFTEKIYKSIFNVVDVG [YJL039C/NUP192],protein stability index,doa10∆,1.99 ± 0.07
same,protein stability index,pdr5∆,1.71 ± 0.072
same,protein stability index,san1∆,1.72 ± 0.14
same,protein stability index,ubr1∆,1.33 ± 0.065
LYFEIIHGVLKNVDREV [FAS2],protein stability index,doa10∆,3.04 ± 0.09
same,protein stability index,pdr5∆,2.04 ± 0.099
same,protein stability index,san1∆,2.63 ± 0.13
same,protein stability index,ubr1∆,1.64 ± 0.18
YWSDKKADTDTLLYEQI [SNF5],protein stability index,doa10∆,2.55 ± 0.079
same,protein stability index,pdr5∆,2.61 ± 0.069
same,protein stability index,san1∆,2.64 ± 0.083
same,protein stability index,ubr1∆,2.3 ± 0.049
TKLGFTFTIKEFVSYYY [SNU114],protein stability index,doa10∆,1.88 ± 0.054
same,protein stability index,pdr5∆,2.02 ± 0.054
same,protein stability index,san1∆,1.73 ± 0.067
same,protein stability index,ubr1∆,1.76 ± 0.041
IVGQKNLNRAFNGDQVI [DIS3],protein stability index,doa10∆,3.12 ± 0.078
same,protein stability index,pdr5∆,2.83 ± 0.087
same,protein stability index,san1∆,2.76 ± 0.057
same,protein stability index,ubr1∆,2.98 ± 0.078
VVVKNWGAETDELSMIM [RPS12],protein stability index,doa10∆,3.35 ± 0.14
same,protein stability index,pdr5∆,3.4 ± 0.14
same,protein stability index,san1∆,3.23 ± 0.087
same,protein stability index,ubr1∆,3.15 ± 0.14
ILDNINHNGSALLIEVF [ITC1],protein stability index,doa10∆,1.13 ± 0.096
same,protein stability index,pdr5∆,1.22 ± 0.076
same,protein stability index,san1∆,1.14 ± 0.13
same,protein stability index,ubr1∆,1.22 ± 0.07
VRELVEKIDGMDVDSVK [RPC82],protein stability index,doa10∆,2.99 ± 0.19
same,protein stability index,pdr5∆,3.41 ± 0.27
same,protein stability index,san1∆,3.34 ± 0.11
same,protein stability index,ubr1∆,3.3 ± 0.064
LVDLVSHFSPDIKAAVD [ITC1],protein stability index,doa10∆,1.95 ± 0.063
same,protein stability index,pdr5∆,1.99 ± 0.071
same,protein stability index,san1∆,2.09 ± 0.076
same,protein stability index,ubr1∆,2.54 ± 0.05
NHASMDVYNRELDEHTT [BRR2],protein stability index,doa10∆,3.27 ± 0.068
same,protein stability index,pdr5∆,3.16 ± 0.063
same,protein stability index,san1∆,3.26 ± 0.047
same,protein stability index,ubr1∆,3.26 ± 0.056
YENKDNLTAGIIVAGYD [PRE3],protein stability index,doa10∆,2.71 ± 0.047
same,protein stability index,pdr5∆,2.91 ± 0.05
same,protein stability index,san1∆,2.98 ± 0.04
same,protein stability index,ubr1∆,2.78 ± 0.036
GSAITGPVGKECADLWP [RPL23A],protein stability index,doa10∆,2.44 ± 0.11
same,protein stability index,pdr5∆,2.75 ± 0.085
same,protein stability index,san1∆,2.83 ± 0.067
same,protein stability index,ubr1∆,2.64 ± 0.064
NGDKKVDIYSLPLISTD [YMR129W/POM152],protein stability index,doa10∆,2.88 ± 0.076
same,protein stability index,pdr5∆,2.76 ± 0.056
same,protein stability index,san1∆,2.88 ± 0.034
same,protein stability index,ubr1∆,3.03 ± 0.051
NLEKNYLAKLSKQLSLE [IRR1],protein stability index,doa10∆,3.19 ± 0.14
same,protein stability index,pdr5∆,3.34 ± 0.12
same,protein stability index,san1∆,2.55 ± 0.13
same,protein stability index,ubr1∆,3.14 ± 0.084
SGGSVNLYHVTEDGWIY [PRE2],protein stability index,doa10∆,2.85 ± 0.12
same,protein stability index,pdr5∆,3.16 ± 0.15
same,protein stability index,san1∆,3 ± 0.087
same,protein stability index,ubr1∆,3.04 ± 0.089
SSTQDVILRKISMLVTQ [CSI1],protein stability index,doa10∆,1.62 ± 0.054
same,protein stability index,pdr5∆,1.75 ± 0.054
same,protein stability index,san1∆,1.91 ± 0.085
same,protein stability index,ubr1∆,1.77 ± 0.041
ANSSTIRVTNSFALPFE [RPN8],protein stability index,doa10∆,2.46 ± 0.065
same,protein stability index,pdr5∆,2.18 ± 0.05
same,protein stability index,san1∆,2.73 ± 0.063
same,protein stability index,ubr1∆,3.14 ± 0.039
AAQIFGSYNAFEPASRL [COR1],protein stability index,doa10∆,2.33 ± 0.07
same,protein stability index,pdr5∆,1.55 ± 0.064
same,protein stability index,san1∆,1.41 ± 0.16
same,protein stability index,ubr1∆,1.51 ± 0.082
FTIRGFKQKLNELLKCK [MTW1],protein stability index,doa10∆,3.05 ± 0.059
same,protein stability index,pdr5∆,2.92 ± 0.073
same,protein stability index,san1∆,2.93 ± 0.064
same,protein stability index,ubr1∆,3.17 ± 0.046
KIESLAGGGESDSALIL [UBP6],protein stability index,doa10∆,3.25 ± 0.18
same,protein stability index,san1∆,3.49 ± 0.11
same,protein stability index,ubr1∆,3.12 ± 0.25
IMECCQKNDTAAFKDIA [RRP40],protein stability index,doa10∆,3.08 ± 0.16
same,protein stability index,pdr5∆,3.54 ± 0.17
same,protein stability index,san1∆,2.95 ± 0.084
same,protein stability index,ubr1∆,3.54 ± 0.077
MSFIFPSYAERQSSDES [YML031W/NDC1],protein stability index,doa10∆,2.58 ± 0.051
same,protein stability index,pdr5∆,2.04 ± 0.048
same,protein stability index,san1∆,2.74 ± 0.066
same,protein stability index,ubr1∆,2.5 ± 0.046
VSLSQLLFIVGQVAIKT [YCS4],protein stability index,doa10∆,1.85 ± 0.062
same,protein stability index,pdr5∆,2.27 ± 0.062
same,protein stability index,san1∆,1.71 ± 0.088
same,protein stability index,ubr1∆,2.13 ± 0.046
AIGCIERSDLLPYLSDT [YJR042W/NUP85],protein stability index,doa10∆,2.96 ± 0.095
same,protein stability index,pdr5∆,2.96 ± 0.098
same,protein stability index,san1∆,2.8 ± 0.075
same,protein stability index,ubr1∆,3.06 ± 0.13
PGHEMEDFLDKSYYLNT [AAR2],protein stability index,doa10∆,3.29 ± 0.07
same,protein stability index,pdr5∆,3.1 ± 0.076
same,protein stability index,san1∆,2.81 ± 0.065
same,protein stability index,ubr1∆,3.11 ± 0.04
RIARALKQEGAANKTVV [RPL18A],protein stability index,doa10∆,3.44 ± 0.22
same,protein stability index,pdr5∆,3.39 ± 0.095
same,protein stability index,san1∆,2.95 ± 0.15
same,protein stability index,ubr1∆,3.33 ± 0.052
VSPTVGKLFSDIKVLKR [YIL149C/MLP2],protein stability index,doa10∆,2.96 ± 0.08
same,protein stability index,pdr5∆,3.29 ± 0.077
same,protein stability index,san1∆,3.11 ± 0.06
same,protein stability index,ubr1∆,3.17 ± 0.039
SYFLKLLGNCYSLRLIN [SRB8],protein stability index,doa10∆,2.81 ± 0.065
same,protein stability index,pdr5∆,2.75 ± 0.06
same,protein stability index,san1∆,2.48 ± 0.061
same,protein stability index,ubr1∆,2.96 ± 0.069
ELSEEKYIVKASSGPRY [RPT4],protein stability index,doa10∆,2.66 ± 0.21
same,protein stability index,pdr5∆,2.72 ± 0.17
same,protein stability index,san1∆,3.21 ± 0.098
same,protein stability index,ubr1∆,2.41 ± 0.18
DKEKEENNDDALDLDLD [MED4],protein stability index,doa10∆,2.92 ± 0.072
same,protein stability index,pdr5∆,3.12 ± 0.095
same,protein stability index,san1∆,2.95 ± 0.063
same,protein stability index,ubr1∆,3.16 ± 0.054
KNDTHYLLPDDFHFSTD [BRN1],protein stability index,doa10∆,2.81 ± 0.072
same,protein stability index,pdr5∆,3.19 ± 0.074
same,protein stability index,san1∆,2.9 ± 0.055
same,protein stability index,ubr1∆,2.95 ± 0.065
DSIGSTRVEGSGGGDSE [RPT6],protein stability index,doa10∆,2.6 ± 0.1
same,protein stability index,pdr5∆,2.65 ± 0.11
same,protein stability index,san1∆,3.1 ± 0.065
same,protein stability index,ubr1∆,2.97 ± 0.064
